US20240116985A1 (published 2024)
Starred links: 1 amine or outer side, 2 acyl side, 3 side chain; linkers in the order of their positions; H or OH if unused. Positions of bridges follow the written chain, without caps; N, C: chain ends. Non-standard residues stand in square brackets, D forms with d. Primed or numbered codes have the meaning given here. SeN″ = (S)-5-(((allyloxy)carbonyl)(methyl)amino)-2-amino-2-methylpentanoic acid (stapling residue), C=CCOC(=O)N(C)CCC[C@](C)(N[*:1])C(=O)[*:2]; B5(16) = 2-amino-2-(pent-4-en-1-yl)hept-6-enoic acid = 2,2-bis(4-pentenyl)glycine (stitching residue), C=CCCCC(CCCC=C)(N[*:1])C(=O)[*:2]; B5(23) = 2-amino-2-(pent-4-en-1-yl)hept-6-enoic acid (2,2-bis(4-pentenyl)glycine), stitching residue, C=CCCCC(CCCC=C)(N[*:1])C(=O)[*:2]; B5(9) = 2-amino-2-(pent-4-en-1-yl)hept-6-enoic acid (2,2-bis(4-pentenyl)glycine), C=CCCCC(CCCC=C)(N[*:1])C(=O)[*:2]; 23FF = 2,3-difluoro-L-phenylalanine, O=C([C@H](Cc1cccc(F)c1F)N[*:1])[*:2]; Phe(3,5-F2) = N[C@@H](Cc1cc(F)cc(F)c1)C(=O)O; Phe(3-F) = N[C@@H](Cc1cccc(F)c1)C(=O)O; His(τ-Me) = Cn1cnc(C[C@H](N)C(=O)O)c1; Bta = N[C@@H](Cc1csc2ccccc12)C(=O)O; αAllylPro = C=CC[C@@]1(C(=O)O)CCCN1; S8 = C=CCCCCCC[C@](C)(N)C(=O)O

T1: full-length beta-Catenin (Uniprot ID P35222) (Homo sapiens (Human), UniProt P35222 1-781)
T1 construct: also called bCat; B-Catenin
T1 sequence: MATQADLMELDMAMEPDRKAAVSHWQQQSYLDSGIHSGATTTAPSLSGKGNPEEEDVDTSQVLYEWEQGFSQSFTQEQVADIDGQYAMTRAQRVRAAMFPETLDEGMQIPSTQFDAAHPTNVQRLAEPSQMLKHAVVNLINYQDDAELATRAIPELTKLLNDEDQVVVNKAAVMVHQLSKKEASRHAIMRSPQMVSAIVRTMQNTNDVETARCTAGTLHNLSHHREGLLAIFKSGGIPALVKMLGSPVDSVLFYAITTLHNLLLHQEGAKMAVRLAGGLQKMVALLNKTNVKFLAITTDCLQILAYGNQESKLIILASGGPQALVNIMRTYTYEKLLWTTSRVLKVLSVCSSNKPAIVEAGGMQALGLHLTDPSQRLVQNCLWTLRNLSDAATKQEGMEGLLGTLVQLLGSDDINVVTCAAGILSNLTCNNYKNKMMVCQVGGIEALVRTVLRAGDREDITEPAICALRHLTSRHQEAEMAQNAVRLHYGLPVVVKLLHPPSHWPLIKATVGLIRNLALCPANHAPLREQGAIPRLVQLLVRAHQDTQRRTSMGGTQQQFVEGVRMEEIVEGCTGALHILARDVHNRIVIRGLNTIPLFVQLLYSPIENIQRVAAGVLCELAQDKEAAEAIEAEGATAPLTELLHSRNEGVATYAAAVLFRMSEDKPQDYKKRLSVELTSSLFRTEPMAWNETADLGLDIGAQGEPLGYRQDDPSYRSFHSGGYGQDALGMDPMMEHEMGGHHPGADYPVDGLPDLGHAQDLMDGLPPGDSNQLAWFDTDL

T2: full-length beta-Catenin (Uniprot ID P35222) (Homo sapiens (Human), UniProt P35222 1-781)
T2 construct: The assay text says full-length beta-Catenin (Uniprot ID P35222); also called bCat; B-Catenin
T2 sequence: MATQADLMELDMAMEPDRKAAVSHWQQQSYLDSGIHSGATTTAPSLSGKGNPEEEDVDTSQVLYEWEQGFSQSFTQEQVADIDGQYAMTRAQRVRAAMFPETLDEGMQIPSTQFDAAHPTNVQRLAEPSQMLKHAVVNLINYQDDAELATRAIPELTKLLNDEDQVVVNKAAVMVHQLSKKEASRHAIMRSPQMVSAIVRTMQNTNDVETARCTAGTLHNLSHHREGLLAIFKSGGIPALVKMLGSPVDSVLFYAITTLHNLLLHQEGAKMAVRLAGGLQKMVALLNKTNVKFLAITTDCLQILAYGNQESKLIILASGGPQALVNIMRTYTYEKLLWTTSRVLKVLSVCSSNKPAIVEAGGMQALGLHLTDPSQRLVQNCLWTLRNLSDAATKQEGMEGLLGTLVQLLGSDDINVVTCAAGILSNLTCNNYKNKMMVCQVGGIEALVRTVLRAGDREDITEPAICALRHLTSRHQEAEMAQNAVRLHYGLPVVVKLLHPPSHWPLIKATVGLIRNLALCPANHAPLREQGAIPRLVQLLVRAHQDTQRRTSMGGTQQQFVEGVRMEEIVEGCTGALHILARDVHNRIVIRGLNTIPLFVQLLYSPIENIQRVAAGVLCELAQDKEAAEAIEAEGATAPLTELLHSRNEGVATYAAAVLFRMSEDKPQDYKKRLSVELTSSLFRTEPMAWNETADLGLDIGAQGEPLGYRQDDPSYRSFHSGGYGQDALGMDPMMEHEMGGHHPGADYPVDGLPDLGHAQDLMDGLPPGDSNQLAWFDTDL

B1: I-658 (peptide)
peptide: XDIXDEALFQXFXQ
modifications: not fully specified; Ac-PL3-Asp-Ile-B5-Asp-Glu-Ala-Leu-Phe-Gln-S8-Phe-BztA-Gln-NH2; N-terminal acetyl, C-terminal amide; PL3(1), B5(4), S8(11) stapled by olefin metathesis (1-4 and 4-11); BztA at 13
notes: Stapled peptide
B2: I-388 (peptide)
peptide: XDAXDEAAFVXFXQ
modifications: not fully specified; N-terminal Ac; PL3 at 1, B5 at 4, S8 at 11 (stapled 1-4 and 4-11 by olefin metathesis); 23FF at 12; BztA at 13; C-terminal NH2
notes: Stapled peptide; also called Ac-PL3-Asp-Ala-B5-Asp-Glu-Ala-Ala-Phe-Val-S8-23FF-BztA-Gln-NH2
B3: I-396 (peptide)
peptide: Ac-[αAllylPro]DA[B5(9)]DHAAFV[S8][Phe(3-F)][Bta]Q-NH2
modifications: staple 1-4, 4-11; also: earlier eluting HPLC isomer, E/Z not assigned
notes: Stapled peptide; also called Ac-PL3-Asp-Ala-B5-Asp-His-Ala-Ala-Phe-Val-S8-3FF-BztA-Gln-NH2
B4: I-397 (peptide)
peptide: XDAXDHAAFVXFXQ
modifications: not fully specified; N-terminal Ac; PL3 at 1, B5 at 4, S8 at 11 (stapled 1-4 and 4-11 by olefin metathesis); 3FF at 12; BztA at 13; C-terminal NH2
notes: as for B3
B5: I-398 (peptide)
peptide: Ac-[αAllylPro]DA[B5(16)]DHAAFV[SeN″][Phe(3-F)][Bta]Q-NH2
modifications: staple 1-4, 4-11; not fully specified; printed as Ac-PL3-Asp-Ala-B5-Asp-His-Ala-Ala-Phe-Val-SeN-3FF-BztA-Gln-NH2
notes: Stapled peptide; also called Ac-PL3-Asp-Ala-B5-Asp-His-Ala-Ala-Phe-Val-SeN-3FF-BztA-Gln-NH2
B6: I-399 (peptide)
peptide: XDAXDHAAFQXFXQ
modifications: not fully specified; N-terminal Ac; PL3 at 1, B5 at 4, S8 at 11 (stapled 1-4 and 4-11 by olefin metathesis); 3FF at 12; BztA at 13; C-terminal NH2
notes: Stapled peptide; also called Ac-PL3-Asp-Ala-B5-Asp-His-Ala-Ala-Phe-Gln-S8-3FF-BztA-Gln-NH2
B7: I-400 (peptide)
peptide: Ac-[αAllylPro]DA[B5(16)]DHAAFQ[SeN″][Phe(3-F)][Bta]Q-NH2
modifications: staple 1-4, 4-11; not fully specified; printed as Ac-PL3-Asp-Ala-B5-Asp-His-Ala-Ala-Phe-Gln-SeN-3FF-BztA-Gln-NH2
notes: Stapled peptide; also called Ac-PL3-Asp-Ala-B5-Asp-His-Ala-Ala-Phe-Gln-SeN-3FF-BztA-Gln-NH2
B8: I-403 (peptide)
peptide: Ac-[αAllylPro]DA[B5(16)]D[His(τ-Me)]AAFV[S8][Phe(3-F)][Bta]Q-NH2
modifications: staple 1-4, 4-11; not fully specified
notes: Stapled peptide; also called Ac-PL3-Asp-Ala-B5-Asp-1meH-Ala-Ala-Phe-Val-S8-3FF-BztA-Gln-NH2
B9: I-406 (peptide)
peptide: Ac-[αAllylPro]DA[B5(23)]DEAAFQ[S8]F[Bta]Q-NH2
modifications: staple 1-4, 4-11
notes: Stapled peptide; also called Ac-PL3-Asp-Ala-B5-Asp-Glu-Ala-Ala-Phe-Gln-S8-Phe-BztA-Gln-NH2
B10: I-407 (peptide)
peptide: Ac-[αAllylPro]DI[B5(23)]DEAAFQ[S8]F[Bta]Q-NH2
modifications: staple 1-4, 4-11
notes: Stapled peptide; also called Ac-PL3-Asp-Ile-B5-Asp-Glu-Ala-Ala-Phe-Gln-S8-Phe-BztA-Gln-NH2
B11: I-410 (peptide)
peptide: Ac-[αAllylPro]DV[B5(23)]DEAAFQ[S8]F[Bta]Q-NH2
modifications: staple 1-4, 4-11
notes: Stapled peptide; also called Ac-PL3-Asp-Val-B5-Asp-Glu-Ala-Ala-Phe-Gln-S8-Phe-BztA-Gln-NH2
B12: I-389 (peptide)
peptide: Ac-[αAllylPro]DA[B5(9)]DEAAFV[S8][23FF][Bta]Q-NH2
modifications: staple 1-4, 4-11; also: later eluting HPLC isomer, E/Z not assigned
notes: as for B2
B13: I-390 (peptide)
peptide: Ac-[αAllylPro]DA[B5(9)]DEAA[23FF]V[S8]F[Bta]Q-NH2
modifications: staple 1-4, 4-11; not fully specified; printed as Ac-PL3-Asp-Ala-B5-Asp-Glu-Ala-Ala-23FF-Val-S8-Phe-BztA-Gln-NH2
notes: Stapled peptide; also called Ac-PL3-Asp-Ala-B5-Asp-Glu-Ala-Ala-23FF-Val-S8-Phe-BztA-Gln-NH2
B14: I-391 (peptide)
peptide: Ac-[αAllylPro]DA[B5(9)]DEAA[23FF]V[S8]F[Bta]Q-NH2
modifications: staple 1-4, 4-11; also: later eluting HPLC isomer, E/Z not assigned
notes: as for B13
B15: I-394 (peptide)
peptide: Ac-[αAllylPro]DA[B5(9)]DEAAFV[S8][Phe(3,5-F2)][Bta]Q-NH2
modifications: staple 1-4, 4-11
notes: Stapled peptide; also called Ac-PL3-Asp-Ala-B5-Asp-Glu-Ala-Ala-Phe-Val-S8-35FF-BztA-Gln-NH2

The binders below were run against T1, full-length beta-Catenin (Uniprot ID …) (assay: fluorescence polarization competition; full-length beta-catenin, competitor 5FAM-TCF4(10-53) probe).
Outline: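 Fluorescence polarization was read in duplicate after the plate sat 60 minutes at 20° C. shielded from light. Values come from fitting to a 1:1 binding model with hill slope.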
Ac-[αAllylPro]DI[B5(16)]DESAFQ[S8]F[Bta]Q-NH2 (staple 1-4, 4-11, Stapled peptide) [I-652] was tested, and the IC50 was 72 nM. Ac-[αAllylPro]DI[B5(16)]DEWAFQ[S8]F[Bta]Q-NH2 (staple 1-4, 4-11, Stapled peptide) [I-655] was tested, and the IC50 was 183 nM. Binder B1 has an IC50 of 546 nM.

Each binder was assayed against T2, full-length beta-Catenin (Uniprot ID …) (assay: fluorescence polarization competition; full-length beta-catenin with 5FAM-labeled TCF4 (residues 10-53) probe as competitor).
Description: The plate was incubated protected from light for 60 minutes at 20° C. prior to read. Reads were performed on a CLARIOstar plate reader (BMG Labtech) in duplicate, and data were fitted to a 1:1 binding model with hill slope using an in-house script. All provided concentrations are final concentrations.
In the case of B2, the IC50 is reported as 5000 nM. For B3, the IC50 was 3430 nM. In the case of B4, the IC50 is reported as 2230 nM. B5 showed an IC50 of 2160 nM. In the case of B6, the IC50 is reported as 2500 nM. B7 was tested, and the IC50 was 3590 nM. With B8 the IC50 was 2130 nM. B9 gave an IC50 of 94 nM. In the case of B10, the IC50 is reported as 30 nM. B11 was tested, and the IC50 was 50 nM. In the case of B12, the IC50 is reported as 5000 nM. For B13, the IC50 was 3420 nM. Binder B14 has an IC50 of 1910 nM. B15 was tested, and the IC50 was 5000 nM.
